The source of these data is IntAct's records for PubMed 14992724.

B1: Meiosis-specific protein SPO11 (Saccharomyces cerevisiae), P23179 (parent)
chain: MALEGLRKKYKTRQELVKALTPKRRSIHLNSNGHSNGTPCSNADVLAHIKHFLSLAANSLEQHQQPISIVFQNKKKKGDTSSPDIHTTLDFPLNGPHLCTHQFKLKRCAILLNLLKVVMEKLPLGKNTTVRDIFYSNVELFQRQANVVQWLDVIRFNFKLSPRKSLNIIPAQKGLVYSPFPIDIYDNILTCENEPKMQKQTIFPGKPCLIPFFQDDAVIKLGTTSMCNIVIVEKEAVFTKLVNNYHKLSTNTMLITGKGFPDFLTRLFLKKLEQYCSKLISDCSIFTDADPYGISIALNYTHSNERNAYICTMANYKGIRITQVLAQNNEVHNKSIQLLSLNQRDYSLAKNLIASLTANSWDIATSPLKNVIIECQREIFFQKKAEMNEIDARIFEYK
partner: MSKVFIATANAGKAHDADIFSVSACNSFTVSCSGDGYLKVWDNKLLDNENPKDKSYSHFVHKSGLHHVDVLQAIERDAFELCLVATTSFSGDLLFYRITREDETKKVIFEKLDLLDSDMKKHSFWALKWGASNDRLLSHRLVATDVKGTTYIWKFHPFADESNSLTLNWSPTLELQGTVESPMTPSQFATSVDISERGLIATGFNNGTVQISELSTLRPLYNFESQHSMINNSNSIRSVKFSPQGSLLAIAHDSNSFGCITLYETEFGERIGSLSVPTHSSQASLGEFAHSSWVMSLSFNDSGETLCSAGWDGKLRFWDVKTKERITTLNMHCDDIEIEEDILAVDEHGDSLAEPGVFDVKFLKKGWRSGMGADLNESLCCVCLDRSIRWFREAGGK

The variants in the test derive from B1. To be noted: with ski8_yeast SKI8, Q02793.
On to MALEGLRKKYKTRQELVKALTPKRRSIHLNSNGHSNGTPCSNADVLAHIKHFLSLAANSLEQHQQPISIVFQNKKKKGDTSSPDIHTTLDFPLNGPHLCTHQFKLKRCAILLNLLKVVMEKLPLGKNTTVRDIFYSNVELFQRQANVVQWLDVIRFNFKLSPRKSLNIIPAQKGLVYSPFPIDIYDNILTCENEPKMQKQTIFPGKPCLIPFFQDDAVIKLGTTSMCNIVIVEKEAVFTKLVNNYHKLSTNTMLITGKGFPDFLTRLFLKKLEQYCSKLISDCSIFTDADPYGISIALNYTHSNERNAYICTMANYKGIRITQVLAQNNEVHNKSIQLLSLNQRDYSLAKNLIASLTANSWDIATSPLKNVIIECAREIFFQKKAEMNEIDARIFEYK [Q376A], for which the “effect of a mutation on the interaction” value was “disrupting interaction strength”.

Regarding MALEGLRKKYKTRQELVKALTPKRRSIHLNSNGHSNGTPCSNADVLAHIKHFLSLAANSLEQHQQPISIVFQNKKKKGDTSSPDIHTTLDFPLNGPHLCTHQFKLKRCAILLNLLKVVMEKLPLGKNTTVRDIFYSNVELFQRQANVVQWLDVIRFNFKLSPRKSLNIIPAQKGLVYSPFPIDIYDNILTCENEPKMQKQTIFPGKPCLIPFFQDDAVIKLGTTSMCNIVIVEKEAVFTKLVNNYHKLSTNTMLITGKGFPDFLTRLFLKKLEQYCSKLISDCSIFTDADPYGISIALNYTHSNERNAYICTMANYKGIRITQVLAQNNEVHNKSIQLLSLNQRDYSLAKNLIASLTANSWDIATSPLKNVIIECQAAIFFQKKAEMNEIDARIFEYK [R377A;E378A], the “effect of a mutation on the interaction” value was “disrupting interaction strength”.
